Target: interferon gamma receptors on HeLa cells (UniProt P15260)
Test: cell-based or functional assay

Sequence of UniProt P15260 (P15260 18-489 limits assumed): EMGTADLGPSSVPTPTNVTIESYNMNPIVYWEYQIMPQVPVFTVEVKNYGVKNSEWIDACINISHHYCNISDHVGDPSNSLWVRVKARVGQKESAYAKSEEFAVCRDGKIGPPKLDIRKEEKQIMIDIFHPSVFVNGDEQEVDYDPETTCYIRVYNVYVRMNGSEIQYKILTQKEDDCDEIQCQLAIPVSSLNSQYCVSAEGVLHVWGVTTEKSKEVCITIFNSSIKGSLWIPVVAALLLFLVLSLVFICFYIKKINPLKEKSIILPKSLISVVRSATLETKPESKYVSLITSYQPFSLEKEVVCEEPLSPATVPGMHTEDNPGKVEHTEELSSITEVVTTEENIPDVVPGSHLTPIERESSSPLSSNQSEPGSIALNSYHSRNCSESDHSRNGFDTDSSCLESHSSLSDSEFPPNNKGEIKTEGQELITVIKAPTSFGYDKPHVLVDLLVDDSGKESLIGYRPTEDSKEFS

Substance	interferon gamma activity, Primary Assay (ISRE-luciferase reporter in HeLa cells), culture medium 24 h after transfection [AU/ml]	specific activity as percent of the corresponding non-PEGylated interferon gamma variant, Primary Assay [%]	specific activity, Primary Assay (ISRE-luciferase reporter in HeLa cells) [AU/mg]
interferon gamma E38N+S40T+S99T variant (full-length, expressed from pIGY-54 in CHO K1 cells) (from UniProt P01579 24-161) (ligand)	1.3e+07	–	–
interferon gamma S99T variant (full-length, expressed from pIGY-48 in CHO K1 cells) (from UniProt P01579 24-161) (ligand)	5.1e+06	–	–
interferon gamma variant N16C+S99T (full-length) PEGylated with mPEG-OPSS (10 kDa) (from UniProt P01579 24-161) (ligand)	–	15	1.3e+06
interferon gamma variant N59C+S99T (full-length) PEGylated with mPEG-MAL (5 kDa) (from UniProt P01579 24-161) (ligand)	–	15	2.4e+06

— patent US20030138403A1
